± gives the uncertainty stated by the source.

A short description of the data set: amyloid nucleation score (Sup35N fusion, yeast selection) (log enrichment); library NNK3; higher = more nucleation; inactive = no reads after selection. The essentials: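 Libraries of peptides of 20 random codons fused to Sup35N were expressed in psi-negative yeast and induced 24 hours with 100 μM copper sulfate. Selection was 7 days at 30°C on medium lacking adenine and uracil, and plasmid inserts were Illumina-sequenced before and after selection. Nucleation score is the DiMSum log enrichment of output over input reads, centred on the mode score of non-aggregating sequences, and sequences with under 100 input reads were left out.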
As to LVYCFAYRVVHSNCHLESC, the amyloid nucleation score entry was “inactive”. Then INMNDSINGS, with 0.231 ± 0.62; and KQLLAKTALAYEAIRPPIPI, with “inactive”. Then YPSGPHDCYCHTLYEFPFFL, with “inactive”; and WNRAVCIMSNIWIMDLPVLK, with “inactive”; and FSLGVWSNPDWVRCSHWFIF, with 1.28 ± 0.14. GQDEPDCVG: the amyloid nucleation score worked out at 0.014 ± 0.52. Then ISTARCNLLCRCWLRIYYND, with “inactive”. Then GSRVMMCPNT, with “inactive”; and MALLPGVAGTSYK, with -0.435 ± 1.3; and DLFISPKFVQ, with “inactive”.

Turning to YAPSVLSCN, the amyloid nucleation score entry is “inactive”. Then SEISWQVLCKNEDEYCHFWE, with “inactive”. AEASNGACLRLCWLVLVWMD yielded an amyloid nucleation score of -0.206 ± 1.5. Next, HARFTDQKTTPIWCTSVFKK: “inactive”. Then RMTKTKI, with “inactive”; and SAGLKS, with “inactive”; and LNFMWRGMY, with -0.135 ± 0.62. For the substance PNHEFYRARFRLCNAICTTV, the amyloid nucleation score entry is “inactive”. Then CYGKTGSCFSVLHGWGGFVM, with “inactive”. Next, LAYVLKDYFNCYGVIVVISL: “inactive”; DKRDNMYICVCRYCHETWCI: -0.397 ± 0.66; YSGWVCWSLQLTYMTFNFRL: “inactive”. Next, HFKVFT: “inactive”; GEWLCVFFSWPSGSPIVPWE: “inactive”; MLKSTKKSRGLYMVSYTFTG: “inactive”. Turning to SLISNCPIVWNRIWISYHFH, the amyloid nucleation score was 0.738 ± 0.3.

The substance RVCYEFKYKIKYVLD yielded an amyloid nucleation score of -0.457 ± 0.5.

Take CCKSCSTLFLNFSLFNDLLT: the amyloid nucleation score entry is “inactive”. Then RSVAVITRCSNNGRSHKC, with “inactive”; and YSYHS, with “inactive”.

In the case of VEPYRVLYRNGR, the amyloid nucleation score result was “inactive”. Next, STRTWQRF: -0.014 ± 0.28; TRNWLDSRKLD: “inactive”; AFYLMLVS: 1.12 ± 0.12. Take LGWSMFLFDFSFKVKSH: the amyloid nucleation score result is “inactive”. Next, ATDCLCEQRPVFPNKVKWQS: “inactive”; GLSMLGGLNDSRTCSLVSNV: “inactive”.

The substance RPRQSTIMKNDTSSVAVSGL yielded an amyloid nucleation score of -0.582 ± 1.1. Then SAREKIVLRVS, with -0.684 ± 1.1. Then RSIGIAFLGIVGVYNMLASQ, with -0.195 ± 0.59; and LDRCDHSIVCR, with “inactive”; and DMIYMLVAFARFIYLDTCIR, with “inactive”.

With VLLMRNAVIYPGSGMSSSSA, the amyloid nucleation score entry was “inactive”. As for VFSNSGAETVLGLSKGWSDV, the amyloid nucleation score is -0.542 ± 0.96. Then GYLFGVRVGCVYELAFDGCR, with “inactive”; and MVLYRFCIVIHWTCTV, with “inactive”.

As for LFDVKDRSTMVVVIPCFHGS, the amyloid nucleation score was 2.23 ± 0.065.

Consider YDRGIVWH, for which the amyloid nucleation score entry is “inactive”. Next, SYKPLVMWLMSGVSASGLMC: “inactive”; SSNLYMSSFWTSMMTWPTNY: “inactive”; HGVWRLSYVVVGCPLTEVSP: “inactive”.

Turning to DSSSLRSNVLVTVCVLVSSI, the amyloid nucleation score is 0.375 ± 0.22.

Take FSIVELTLSRLK: the amyloid nucleation score result is “inactive”.

For the substance WDMWPGI, the amyloid nucleation score entry is “inactive”. Then LVNMHLSLSYGDLSRRQFVN, with “inactive”. Next, LKSMLLFSMRSRSVKCCGGE: “inactive”. For AMCCF, the amyloid nucleation score result is “inactive”. Then YNMYQTHLSSYNYHQDATKN, with 1.7 ± 0.095. Then TFHLRDCKSF, with 0.133 ± 1; and IDYSNVYSISRPSMFCWRNN, with “inactive”; and VRLVGLCFYIAMSLPSSFFI, with “inactive”. For RYPTDSVWGIGSGLVN, the amyloid nucleation score entry was “inactive”. Next, QKLSCPMFLMAIIVSKITKM: “inactive”; PLSNGELFRNATLNDGIWGE: “inactive”. Next, RLGTM: “inactive”; CSVGVAVGMIG: “inactive”. Regarding SSLGNSLVMYVVCAWVN, the amyloid nucleation score is 0.273 ± 0.37. Then LYVFYCVTHLHSIGPGQCLR, with “inactive”; and LWIPLWNVRKVYIIGQCLT, with “inactive”; and PWKLYYNFQVLLLNAGHLML, with “inactive”. Then HSSSVTCI, with “inactive”; and SNDMRGLVGEEIGFLSWN, with “inactive”.

Regarding CCIMQPCSVVVYQWSQNRSR, the amyloid nucleation score came to 3.14 ± 0.053. Then YYVFVYLYSCVCFTGTGKSV, with “inactive”; and YSGTFDFLIKA, with “inactive”. Next, MKVNKLRTMPCNINWQFCLP: 0.819 ± 0.11. In the case of DYEHSGSCKIDFVTL, the amyloid nucleation score result is “inactive”. Then CMFLGSELCWRRPRGS, with 0.443 ± 0.32; and RSSDVRQYTLMCNWSKHVVL, with 0.089 ± 0.54; and CQNLATRSFKALPLRSLCTC, with “inactive”. Then VGIIVFLIAFHYYKRSMYWD, with “inactive”; and SVLCWFSVR, with “inactive”. Regarding IDGTCFARIFRCCIFYLR, the amyloid nucleation score result is “inactive”.

The substance PDEAVGV had an amyloid nucleation score of -1.19 ± 2.5. Next, EYKRTSMVVQFSCSAYILTF: “inactive”; FLSKTLYIVVSHGVGTSGTG: “inactive”.

YSGIRVLFYFSISDDFSQSI returned an amyloid nucleation score of 0.756 ± 0.24. As for WPIIGTLNRTSGSDR, the amyloid nucleation score entry is “inactive”. Then YLDRTSSMVTLVVSRGIF, with “inactive”; and HKGFVSKIGNN, with -0.4 ± 0.9. Then GAFCSND, with “inactive”; and GLLSHLDHLWVCGGWGSRKR, with “inactive”. Then VGAKRFPYVYWAYGSYVFAD, with “inactive”; and IYYNHVVI, with “inactive”.

As to RCLRKSSIFA, the amyloid nucleation score result was “inactive”.

On to RLWLVYAKPGTRRCSRRMGC, for which the amyloid nucleation score result is “inactive”. Next, VFTNGRSYISRMISYYKYCR: “inactive”. Then NSLWSYMGTVLFNPFWLVWR, with “inactive”. Then YAMYSYFFIVAWFFNRS, with 0.252 ± 0.39; and KSCLCSSTKRKLNRLTYTDR, with “inactive”. Turning to VFRAGILESWHRWEGLGVVL, the amyloid nucleation score result is “inactive”. Next, ISSFCRGLVAFEPCWFGLEK: “inactive”. Next, YVCVPCPCELSIQCCVTITF: 2.01 ± 0.061; GENWDCTCVADQCRNWTCYL: 0.282 ± 0.81; VALWWTVMYRFFMALTFIMQ: “inactive”. Next, FFLSFRYLKKFSRIGLW: “inactive”; NTFWLGVRIDGVFGWATNLP: “inactive”; VNSLVSRQINFIEVRRSMRW: 0.849 ± 0.23. Turning to LVNTCKNSFLVVLHF, the amyloid nucleation score was 2.09 ± 0.065.

Regarding SGRRCKAICA, the amyloid nucleation score result was “inactive”. Then IWPVESWLWHVLWYLVFKI, with 0.49 ± 0.17.

FFNIMCYRHWLKVKLYYIVK had an amyloid nucleation score of 1.9 ± 0.06. As for GMLGTGYVYPCWL, the amyloid nucleation score result is “inactive”. Next, GLEGLLVLWFQCSFTVAALR: “inactive”. Next, MPYMW: 0.73 ± 0.29; EYIAFISTIPDMSLFSDVLF: 0.653 ± 0.11; YSALRFSKSCGRPCCVYNSF: “inactive”. Then WGVGTPVRLWFIEANPVGHV, with “inactive”. Take KMRFLIALNVTTWGPKLLCG: the amyloid nucleation score entry was “inactive”. Then SVARWSENGSTKSQYSP, with “inactive”; and RLLFFLDRKDLDAGGVFSKG, with “inactive”; and SMYDKGMGYTCVKSSVNLFV, with “inactive”. Next, YNNSTFYTEPTLWD: “inactive”; RKDVSCSPLLNCETVSVQ: “inactive”; GPDWYWNLNV: “inactive”. With QRKFVVAVVSATILLFNTRE, the amyloid nucleation score result was “inactive”. Then QVGVWRNNGYEYYRGRNLRG, with “inactive”; and TEISSSMSFVHNFIYVCDR, with “inactive”; and IVFMRLRMRVICPLCSVRLS, with 0.385 ± 0.2. As for MNCDDAVDWCFII, the amyloid nucleation score result was “inactive”. Then TYYTGQLNVTEVVFLYISGS, with 1.96 ± 0.069.

The values above are taken from the supplement of paper PMC12042874.
